The target of assay [1] is T1, human CD3 (human, UniProt P07766 23-207; P04234 22-171).
T1 construct: As expressed on Jurkat cells or human T cells within the T cell receptor complex; also called hCD3
Briefly: FACS titration on Jurkat cells (human CD3).
Protocol: (§1) Flow cytometric analysis was utilized to determine binding of STEAP2×CD3 bispecific antibodies to Jurkat, PC3_STEAP2/1 chimeric and cynomolgus T cells, followed by detection with a phycoerythrin (PE)-labeled anti-human IgG antibody. […] After incubation, the cells were washed twice with cold PBS containing 1% filtered FBS and a PE-conjugated anti-human secondary antibody was added to the cells and incubated for an additional 30 minutes. Wells containing no antibody or secondary antibody only were used as a control. After incubation, cells were washed, re-suspended in 200 μL cold PBS containing 1% filtered FBS and analyzed by flow cytometry on a BD FACS Canto II.

Assay [2] addresses T1, human CD3. Briefly: cell-based or functional assay.
Assay [3] has as its target T2, human six-transmembrane epithelial antigen of prostate 2 (STEAP2) (human, UniProt Q8NFT2 1-490).
T2 construct: also called hSTEAP2
T2 sequence: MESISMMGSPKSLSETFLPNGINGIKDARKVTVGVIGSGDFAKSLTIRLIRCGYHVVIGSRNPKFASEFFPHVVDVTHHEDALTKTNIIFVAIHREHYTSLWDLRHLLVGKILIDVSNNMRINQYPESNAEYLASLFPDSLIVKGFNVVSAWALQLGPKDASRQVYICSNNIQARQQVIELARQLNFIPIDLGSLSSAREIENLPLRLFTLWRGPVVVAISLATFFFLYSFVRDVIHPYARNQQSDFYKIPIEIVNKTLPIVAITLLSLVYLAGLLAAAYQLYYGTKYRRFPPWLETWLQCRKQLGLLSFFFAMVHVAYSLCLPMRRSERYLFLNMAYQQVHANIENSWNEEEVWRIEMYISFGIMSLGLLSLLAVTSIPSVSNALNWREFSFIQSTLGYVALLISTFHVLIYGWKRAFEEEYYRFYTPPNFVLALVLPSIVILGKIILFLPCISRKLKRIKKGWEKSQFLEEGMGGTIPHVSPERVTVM
Briefly: FACS on C4-2 cells (endogenous STEAP2), MFI fold above unstained, average at 100-300 nM antibody.
Protocol: (§2) Briefly, 1×10⁵ cells were incubated with 10 μg/ml of anti STEAP2 antibodies, or isotype control antibodies for 30 min on ice in antibody dilution buffer. Following one wash with antibody dilution buffer, cells were incubated with 10 μg/ml of PE conjugated anti-human or antimouse Fc secondary antibodies for 30 min on ice. Following one additional wash, samples were incubated with Cytofix (1% formaldehyde) for 20 minutes. After one final wash, samples were filtered through a Pall 96 well filtration block, run on a Hypercyt® cytometer and analyzed in ForeCyt™ (IntelliCyt, Albuquerque, N. Mex.). Mean fluorescence intensities (MFI) were expressed as fold change above unstained levels (background). The average fold above background at antibody concentrations of 100-300 nM were determined.

Assay [4] concerns the target T2, human six-transmembrane epithelial …. Put plainly: FACS titration on C4-2 cells (endogenous STEAP2), 4-parameter fit.
Protocol: as §2
The target is the same in assay [5]. Briefly: cell-based or functional assay.
Assay [6] has as its target T3, STEAP2/1 chimeric construct.
T3 construct: Expressed on engineered PC3 human prostate cancer cells; also called PC3_STEAP2/1
Briefly: FACS titration on PC3 cells expressing the STEAP2/1 chimera.
Protocol: as §1

The target in assay [7] is T1, human CD3. Briefly: cell-based or functional assay. The source holds these as a separate data set.

Experimental findings from patent US20200376136A1 (Regeneron, published 2020) are described below.

Usually EC50 stands for the concentration giving half of the maximal effect. A higher EC50 goes with lower potency in that assay.

T1 sequence (P07766 23-207 limits assumed, chain 1 of 2): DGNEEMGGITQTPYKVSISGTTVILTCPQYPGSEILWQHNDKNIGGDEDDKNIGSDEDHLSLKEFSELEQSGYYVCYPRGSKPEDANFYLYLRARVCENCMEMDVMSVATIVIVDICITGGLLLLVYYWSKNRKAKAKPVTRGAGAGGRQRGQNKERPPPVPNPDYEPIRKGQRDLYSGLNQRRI
T1 sequence (P04234 22-171 limits assumed, chain 2 of 2): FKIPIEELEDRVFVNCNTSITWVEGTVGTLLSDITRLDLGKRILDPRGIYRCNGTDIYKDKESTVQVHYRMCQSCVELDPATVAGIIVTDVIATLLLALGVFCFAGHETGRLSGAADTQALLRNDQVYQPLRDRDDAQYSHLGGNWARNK

B1: BSSTEAP2/CD3-011 (bispecific antibody, V domains shown)
VH 1: QVQLVESGGGVVQPGRSLGLSCAASGFTFSSYGMHWVRQAPGKGLEWVAVIWYDGSNKYYVDSVKGRFTISRDNSKNTLYLQMNSLRAEDTAVYYCAREGLRFLENYYYYYGMDVWGQGTTVTVSS
VH 2: EVQLVQSGGGLVQPGRSLRLSCAASGFTFADYTMHWVRQTPGKGLEWVSGISWNSGSKDYADSVKGRFTISRDNAKNSLYLQMNSLRTEDTALYYCAKYGSGYGRYFFYAMDVWGQGTTVTVSS
VL: EIVLTQSPGTLSLSPGERATLSCRASQSISSTYLAWYQQRPGQAPRLLIYGASSRATGIPDRFSGSGSGTDFTLTISRLEPEDFAVYYCQQYGTSPYTFGQGTKLEIK
notes: also called BSSTEAP2/CD3-0011
The molecule B1 showed an EC50 in assay [1] of 8.63 nM. In assay [2], the “hPBMC Proliferation [M] (EC50, with anti-CD28)” value (“hPBMC Proliferation [M]” for short) came to 8.62e-12 M.

B2: H1M11243N (antibody, mouse IgG1, V domains shown)
VH: QVQLQQSGPGLVKPSQTLSLTCAISGDSVSSNSAAWNWIRQSPSRGLEWLGRTYYRSKWYNDYAVSVKSRITINPDTSKNQFSLHLNSVTPEDTAVYYCARAGIVVVPGPDIYYYYYYGMDVWGQGTTVTVSS
VL: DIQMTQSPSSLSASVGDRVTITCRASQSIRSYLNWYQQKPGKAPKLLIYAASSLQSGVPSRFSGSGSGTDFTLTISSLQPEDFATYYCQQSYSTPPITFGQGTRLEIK
As to B2, in assay [3], the “Avg F.A.B (fold above background)” value was 116 fold above background. The EC50 in assay [4] stood at 23 nM.

B3: H2M11163N (antibody, mouse IgG2, V domains shown)
VH: QVQLQQSGPGLVKPSQALSLTCAISGDSVSSNSAAWNWIRQSPSRGLEWLGRTYYRSKWYNDYAVSVKSRITINPDTSKNHFSLHLNSMTPEDTAVYYCARARIVVVPGPEVYYYYYYDMDVWGQGTTVTVSS
VL: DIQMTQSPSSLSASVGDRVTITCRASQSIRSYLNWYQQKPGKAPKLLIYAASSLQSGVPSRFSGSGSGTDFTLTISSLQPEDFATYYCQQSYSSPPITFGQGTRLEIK
As to B3, in assay [3], the “Avg F.A.B (fold above background)” value is 256 fold above background. The EC50 in assay [4] turned out to be 13 nM.

B4: BSSTEAP2/CD3-005 (bispecific antibody, IgG4, V domains shown)
VH 1: QVQLQQSGPGLVKPSQTLSLTCAISGDSVSSNRAAWNWIRQSPSRGLQWLGRTYYRSKWYNDYAVSLRSRITINPVTSKNQVALHMNSVTPEDTAVYYCARAGIVVVPGPETFYYYDHGLDVWGQGTTVTVSS
VH 2: QVQLVESGGGLVHPGRSLRLSCAASGFKFDDYTMHWVRQAPGKGLEWVSDISWNSGSKGYADSVKGRFTISRDNAKDSLYLQMDSLRAADTAFYYCAKDKSGYGHFYYYAMDVWGQGTTVTVSS
VL: DIQMTQSPSSLSASVGDRVTITCRASQSIRSYLNWYQQKPGKAPELLIHAASSLQSGVPSRFSGSGSGTDFTLTISSLQPEDFASYYCQQSYSAPPITFGQGTRLEIK
B4: the “C4-2 cells depletion EC50” value in assay [5] came out at 0.00729 nM. Besides, the results for the 50% effective concentration (EC50) in assay [1] and in assay [6] were 14.1 nM and 31.8 nM, respectively. The “hPBMC Proliferation [M]” value in assay [2] is 2.76e-12 M.

B5: BSSTEAP2/CD3-001 (bispecific antibody, IgG4, V domains shown)
VH 1: QVQLQQSGPGLVKPSQTLSLTCAISGDSVSSNRAAWNWIRQSPSRGLQWLGRTYYRSKWYNDYAVSLRSRITINPVTSKNQVALHMNSVTPEDTAVYYCARAGIVVVPGPETFYYYDHGLDVWGQGTTVTVSS
VH 2: EVQLVESGGGLVQPGRSLRLSCAASGFTFDDYSMHWVRQAPGKGLEWVSGISWNSGSKGYADSVKGRFTISRDNAKNSLYLQMNSLRAEDTALYYCAKYGSGYGKFYHYGLDVWGQGTTVTVSS
VL: DIQMTQSPSSLSASVGDRVTITCRASQSIRSYLNWYQQKPGKAPELLIHAASSLQSGVPSRFSGSGSGTDFTLTISSLQPEDFASYYCQQSYSAPPITFGQGTRLEIK
In the case of B5, the “C4-2 cells depletion EC50” value in assay [5] worked out at 0.00468 nM. Further, in assay [7], the “T cells activation EC50 [M] (CD69+ of CD2+ T cells)” value stood at 1.61e-12 M. The EC50 in assay [1] was 7.19 nM; in assay [6], 3.44 nM. In assay [2], the “hPBMC Proliferation [M]” value is 1.6e-10 M.

B6: BSSTEAP2/CD3-007 (bispecific antibody, V domains shown)
VH 1: QVQLQQSGPGLVKPSQTLSLTCAISGDSVSSNRAAWNWIRQSPSRGLQWLGRTYYRSKWYNDYAVSLRSRITINPVTSKNQVALHMNSVTPEDTAVYYCARAGIVVVPGPETFYYYDHGLDVWGQGTTVTVSS
VH 2: EVQLVESGGGLVQPGRSLRLSCAASGFTFADYTMHWVRQAPGKGLEWVSDISWNSGSIAYADSVKGRFTISRDNAKNSLYLQMNSLRTEDTAFYYCAKDSRGYGHYKYLGLDVWGQGTTVTVSS
VL: DIQMTQSPSSLSASVGDRVTITCRASQSIRSYLNWYQQKPGKAPELLIHAASSLQSGVPSRFSGSGSGTDFTLTISSLQPEDFASYYCQQSYSAPPITFGQGTRLEIK
In the case of B6, the “C4-2 cells depletion EC50” value in assay [5] was determined as 0.00811 nM. Moreover, the EC50 in assay [1] was found to be 0.615 nM; in assay [6] it was 5.37 nM. For the same molecule, the “hPBMC Proliferation [M]” value in assay [2] was determined as 8.26e-11 M.

B7: H2M11164N (antibody, mouse IgG2, V domains shown)
VH: QVQLQQSGPGLVKPSQTLSLTCVISGDSVSTNSAAWNWIRQSPSRGLEWLGRTYYRSKWYNDYAVSVRSRITINPVTSKNQVALHLNSVTPEDTAVYYCARAGIVVVPGPETYYYYYHGLDVWGQGTTVTVSS
VL: DIQMTQSPSSLSASVGDRVTITCRASQNIRSYLNWYQQKPGKAPKLLIHVASSLQSGVPSRFSGSGSGTDFTLTISSLQPEDFATYYCQQSYSTPPITFGHGTRLEIK
In the case of B7, the “Avg F.A.B (fold above background)” value in assay [3] is 360 fold above background. The molecule also showed an EC50 in assay [4] of 3.7 nM.

B8: H2M11162N (antibody, mouse IgG2, V domains shown)
VH: QVQLQQSGPGLVKPSQTLSLTCAISGDSVSSNRAAWNWIRQSPSRGLQWLGRTYYRSKWYNDYAVSLRSRITINPVTSKNQVALHMNSVTPEDTAVYYCARAGIVVVPGPETFYYYDHGLDVWGQGTTVTVSS
VL: DIQMTQSPSSLSASVGDRVTITCRASQSIRSYLNWYQQKPGKAPELLIHAASSLQSGVPSRFSGSGSGTDFTLTISSLQPEDFASYYCQQSYSAPPITFGQGTRLEIK
Turning to B8, the “Avg F.A.B (fold above background)” value in assay [3] came out at 365 fold above background. This molecule also registered an EC50 in assay [4] of 4.9 nM.

B9: BSSTEAP2/CD3-009 (bispecific antibody, IgG4, V domains shown)
VH 1: QVQLQQSGPGLVKPSQTLSLTCVISGDSVSTNSAAWNWIRQSPSRGLEWLGRTYYRSKWYNDYAVSVRSRITINPVTSKNQVALHLNSVTPEDTAVYYCARAGIVVVPGPETYYYYYHGLDVWGQGTTVTVSS
VH 2: QVQLVESGGGLVHPGRSLRLSCAASGFKFDDYTMHWVRQAPGKGLEWVSDISWNSGSKGYADSVKGRFTISRDNAKDSLYLQMDSLRAADTAFYYCAKDKSGYGHFYYYAMDVWGQGTTVTVSS
VL: DIQMTQSPSSLSASVGDRVTITCRASQNIRSYLNWYQQKPGKAPKLLIHVASSLQSGVPSRFSGSGSGTDFTLTISSLQPEDFATYYCQQSYSTPPITFGHGTRLEIK
In the case of B9, the “C4-2 cells depletion EC50” value in assay [5] is 0.00273 nM. Also, the EC50 in assay [1] was determined as 4.14 nM; in assay [6] it was 42.1 nM. Besides, the “hPBMC Proliferation [M]” value in assay [2] worked out at 3.68e-13 M.

B10: BSSTEAP2/CD3-008 (bispecific antibody, IgG4, V domains shown)
VH 1: QVQLQQSGPGLVKPSQALSLTCAISGDSVSSNSAAWNWIRQSPSRGLEWLGRTYYRSKWYNDYAVSVKSRITINPDTSKNHFSLHLNSMTPEDTAVYYCARARIVVVPGPEVYYYYYYDMDVWGQGTTVTVSS
VH 2: QVQLVESGGGLVHPGRSLRLSCAASGFKFDDYTMHWVRQAPGKGLEWVSDISWNSGSKGYADSVKGRFTISRDNAKDSLYLQMDSLRAADTAFYYCAKDKSGYGHFYYYAMDVWGQGTTVTVSS
VL: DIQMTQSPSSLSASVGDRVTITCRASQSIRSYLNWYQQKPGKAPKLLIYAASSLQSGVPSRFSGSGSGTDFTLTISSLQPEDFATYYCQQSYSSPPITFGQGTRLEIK
Take B10: the “C4-2 cells depletion EC50” value in assay [5] was 0.00411 nM. In addition, the EC50 was found to be 1.52 nM in assay [1] and 68.8 nM in assay [6]. The “hPBMC Proliferation [M]” value in assay [2] is 7.76e-12 M.

B11: BSSTEAP2/CD3-006 (bispecific antibody, V domains shown)
VH 1: QVQLQQSGPGLVKPSQTLSLTCAISGDSVSSNRAAWNWIRQSPSRGLQWLGRTYYRSKWYNDYAVSLRSRITINPVTSKNQVALHMNSVTPEDTAVYYCARAGIVVVPGPETFYYYDHGLDVWGQGTTVTVSS
VH 2: EVQLVESGGGLVQPGRSLRLSCVASGFTFDDYSMHWVRQAPGKGLEWVSGISWNSGSKDYADSVKGRFTISRDNAKNSLYLQMNSLRAEDTALYYCAKYGSGYGKFYHYGLDVWGQGTTVTVSS
VL: DIQMTQSPSSLSASVGDRVTITCRASQSIRSYLNWYQQKPGKAPELLIHAASSLQSGVPSRFSGSGSGTDFTLTISSLQPEDFASYYCQQSYSAPPITFGQGTRLEIK
B11: the “C4-2 cells depletion EC50” value in assay [5] was 0.00393 nM. In addition, the results for the concentration giving a half-maximal response (EC50) in assay [1] and in assay [6] were 3.98 nM and 12.2 nM, respectively. The “hPBMC Proliferation [M]” value in assay [2] was determined as 8.14e-13 M.

B12: BSSTEAP2/CD3-004 (bispecific antibody, IgG4, V domains shown)
VH 1: QVQLVESGGGVVQPGRSLRLSCVASGFTISSYGMNWVRQAPGKGLEWVAVISYDGGNKYSVDSVKGRFTISRDNSKNTLYLQMNSLRAEDSAVYYCARGRYFDLWGRGTLVTVSS
VH 2: EVQLVESGGGLVQPGRSLRLSCAASGFTFADYTMHWVRQGPGTGLEWVSDIGWSGGSLGYADSVKGRFTISRDNAKNSLYLEMNNLRPEDTALYYCVKDKSGYGKFQYGLDVWGQGTTVTVSS
VL: DIQMTQSPSTLSASVGDRVTITCRASQSISSWLAWYQQKPGRAPNLLISKASSLKSGVPSRFSGSGSGTEFTLTVSSLQPDDFATYYCQQYYSYSYTFGQGTKLEIK
Regarding B12, the “C4-2 cells depletion EC50” value in assay [5] is 0.00311 nM. The “T cells activation EC50 [M] (CD69+ of CD2+ T cells)” value in assay [7] is 9.4e-13 M. Also, the EC50 in assay [1] worked out at 0.688 nM; in assay [6], 79.1 nM. Besides, the “hPBMC Proliferation [M]” value in assay [2] came out at 7.1e-13 M.
